According to PMC13364712, “Evolutionarily conserved short linear motifs drive actin filament binding” (Nature Cell Biology, 2026):

Target: actin filaments (actin from Gallus gallus skeletal muscle) (Gallus gallus (chicken), UniProt P68139 1-377)
Test: co-sedimentation; 4 µM EGFP–SFM peptide with 0–200 µM actin filaments in F buffer, 1 h at room temperature, 100,000g for 30 min; pellet read by anti-EGFP western blot; one-site specific binding fit; apparent
Conditions: both partners purified

B1: EGFP-tagged ESPNL SFM peptide (peptide)
chain: IQEWGVSVRTLRGNFESASGPLC
modifications: Limits from translated primers P11/P12 (7 residues either side of SFM 652-660). Construct also has an initiator Met before the peptide and a C-terminal linker-EGFP-TEV-His, left out.
Kd: 6 µM
